Experiments:
[1] = tested on: patients with untreated advanced NSCLC
Experimental: (§1) This is a randomized, double-blind, placebo-controlled, multicenter, phase III clinical study for assessing the efficacy and safety of toripalimab (JS001) or placebo in combination with first-line chemotherapy in patients with untreated advanced NSCLC and exploring the population with optimal biomarker prediction.
(§2) Toripalimab 240 mg/placebo was administered by intravenous infusion once every three weeks (Q3W) in cycles of 21 days, with treatment continued until the patients met the discontinuation criteria, i.e., recorded progressive disease, unacceptable AEs, investigator-assessed unsuitability for continued treatment, withdrawal of informed consent, 2 years of JS001 treatment, or other reasons as specified in the protocol.
(§3) The selection of cisplatin or carboplatin was at the discretion of the investigator.
(§4) Safety analysis set (SS): including all patients who received at least one dose of the study drug (JS001/placebo/chemotherapeutic agent).
(§5) Safety analysis was performed in SS and crossover treatment analysis sets, where safety data from the double-blind stage of the primary study and the crossover treatment stage were analyzed separately. Safety analyses include drug exposure, compliance, adverse events, laboratory examinations, vital signs, physical examinations, electrocardiogramaminations, ECOG scores, etc.
(§6) All safety analyses were based on the SS population (464 patients), including 308 patients in the test group and 156 patients in the control group. […] The primary safety analysis results based on the SS population in the double-blind stage of the primary study are as follows:

[2] = tested on: patients with untreated advanced NSCLC; assay: Phase III clinical study, safety analysis (SS population); details: SS population, test group
Experimental: as §1, §2, §3, §4, §5, §6

JS001: humanized IgG4 anti-PD-1 mAb with light and heavy chain amino acid sequences SEQ ID NOs: 9 and 10
SAE judged by the investigator to be related to JS001: infectious pneumonia [1]: 1.6%
SAE judged by the investigator to be related to JS001: anemia [2]: 2.6%
SAE judged by the investigator to be related to JS001: immune-mediated hepatitis [2]: 1.0%
SAE judged by the investigator to be related to JS001: immune-mediated pneumonia [2]: 2.6%
SAE judged by the investigator to be related to JS001: interstitial lung disease [2]: 1.3%
SAE judged by the investigator to be related to JS001: leukopenia [2]: 1.0%
SAE judged by the investigator to be related to JS001: liver function abnormality [2]: 1.3%
SAE judged by the investigator to be related to JS001: neutropenia [2]: 1.9%
SAE judged by the investigator to be related to JS001: pulmonary inflammation [2]: 1.0%
SAE judged by the investigator to be related to JS001: thrombocytopenia [2]: 2.3%
